B1: Ras-related protein Rab-6A (Homo sapiens), P20340-1 (parent)
chain: MSTGGDFGNPLRKFKLVFLGEQSVGKTSLITRFMYDSFDNTYQATIGIDFLSKTMYLEDRTVRLQLWDTAGQERFRSLIPSYIRDSTVAVVVYDITNVNSFQQTTKWIDDVRTERGSDVIIMLVGNKTDLADKRQVSIEEGERKAKELNVMFIETSAKAGYNVKQLFRRVAAALPGMESTQDRSREDMIDIKLEKPQEQPVSEGGCSC
partner: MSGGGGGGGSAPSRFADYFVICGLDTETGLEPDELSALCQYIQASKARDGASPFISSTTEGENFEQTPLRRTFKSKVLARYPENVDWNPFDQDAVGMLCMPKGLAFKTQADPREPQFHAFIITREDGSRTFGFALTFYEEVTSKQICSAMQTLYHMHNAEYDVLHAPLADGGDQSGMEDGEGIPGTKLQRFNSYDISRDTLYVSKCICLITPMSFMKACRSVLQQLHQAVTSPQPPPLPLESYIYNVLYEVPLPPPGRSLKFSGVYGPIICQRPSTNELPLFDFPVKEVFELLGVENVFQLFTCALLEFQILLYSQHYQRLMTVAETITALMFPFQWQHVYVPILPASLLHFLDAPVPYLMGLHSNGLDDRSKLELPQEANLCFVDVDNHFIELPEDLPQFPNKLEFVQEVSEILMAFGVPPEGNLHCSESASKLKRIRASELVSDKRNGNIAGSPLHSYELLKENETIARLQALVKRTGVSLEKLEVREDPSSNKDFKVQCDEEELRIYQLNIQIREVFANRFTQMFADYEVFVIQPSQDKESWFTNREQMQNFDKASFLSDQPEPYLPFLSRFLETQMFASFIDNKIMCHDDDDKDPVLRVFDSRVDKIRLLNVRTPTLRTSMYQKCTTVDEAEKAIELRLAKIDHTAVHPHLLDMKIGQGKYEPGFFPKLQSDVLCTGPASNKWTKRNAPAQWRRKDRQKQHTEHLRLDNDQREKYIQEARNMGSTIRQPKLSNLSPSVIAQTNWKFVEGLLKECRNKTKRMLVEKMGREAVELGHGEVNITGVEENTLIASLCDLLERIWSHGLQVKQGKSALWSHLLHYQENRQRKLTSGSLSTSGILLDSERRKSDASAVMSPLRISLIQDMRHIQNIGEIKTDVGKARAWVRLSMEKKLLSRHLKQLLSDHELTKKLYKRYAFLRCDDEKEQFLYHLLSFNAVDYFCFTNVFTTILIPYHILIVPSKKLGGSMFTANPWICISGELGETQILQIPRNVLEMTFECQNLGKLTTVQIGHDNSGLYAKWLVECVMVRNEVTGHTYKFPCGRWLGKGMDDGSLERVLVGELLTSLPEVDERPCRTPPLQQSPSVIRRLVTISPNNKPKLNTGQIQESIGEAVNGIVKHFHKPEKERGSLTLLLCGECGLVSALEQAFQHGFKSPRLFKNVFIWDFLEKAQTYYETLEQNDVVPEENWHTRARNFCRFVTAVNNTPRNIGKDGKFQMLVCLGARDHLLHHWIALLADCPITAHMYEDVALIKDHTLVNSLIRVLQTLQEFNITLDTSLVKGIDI

Variants of: B1
Conditions: with den5a_mouse Dennd5a

effect of a mutation on the interaction | Variant
disrupting interaction | I46E

— IntAct's records for PubMed 19141279
